Target: T1, wild-type (polymerization-competent) yeast αβ-tubulin, P09733;P02557
T1 chain 1: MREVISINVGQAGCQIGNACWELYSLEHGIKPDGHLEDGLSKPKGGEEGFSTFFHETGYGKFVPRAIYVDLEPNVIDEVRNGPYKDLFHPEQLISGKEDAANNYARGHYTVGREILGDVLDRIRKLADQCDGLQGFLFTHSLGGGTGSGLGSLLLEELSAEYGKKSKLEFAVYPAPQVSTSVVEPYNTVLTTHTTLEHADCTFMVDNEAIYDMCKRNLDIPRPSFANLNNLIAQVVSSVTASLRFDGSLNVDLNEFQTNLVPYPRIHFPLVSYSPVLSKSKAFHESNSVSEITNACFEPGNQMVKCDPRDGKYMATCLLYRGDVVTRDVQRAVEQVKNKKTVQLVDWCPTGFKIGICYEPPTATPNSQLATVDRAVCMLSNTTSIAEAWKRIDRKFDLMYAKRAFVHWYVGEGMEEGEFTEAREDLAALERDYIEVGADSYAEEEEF
T1 chain 2: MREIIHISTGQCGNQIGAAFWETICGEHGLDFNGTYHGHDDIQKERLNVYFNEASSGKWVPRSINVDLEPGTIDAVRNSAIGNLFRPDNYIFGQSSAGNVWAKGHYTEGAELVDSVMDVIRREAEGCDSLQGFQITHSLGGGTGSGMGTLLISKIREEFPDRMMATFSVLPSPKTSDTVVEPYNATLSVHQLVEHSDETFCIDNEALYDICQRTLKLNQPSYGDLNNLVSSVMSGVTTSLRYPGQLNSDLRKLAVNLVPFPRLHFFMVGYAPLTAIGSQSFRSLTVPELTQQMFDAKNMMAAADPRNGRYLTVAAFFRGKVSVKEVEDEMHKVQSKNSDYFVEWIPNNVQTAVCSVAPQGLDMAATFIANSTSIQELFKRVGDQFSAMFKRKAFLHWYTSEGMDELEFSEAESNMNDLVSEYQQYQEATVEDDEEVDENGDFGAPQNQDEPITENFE
Assay: sedimentation velocity AUC
Details: chain shown with the change; [TOG1-TOG2] = 1.7 µM; [αβ] = 0.35 µM

other: sedimentation coefficient of the TOG1-TOG2:αβ-tubulin complex (s20,w): 7.1 S
B1: TOG1-TOG2(1-560) of Stu2p, P46675 W341A (protein)
chain: MSGEEEVDYTTLPLEERLTYKLWKARLEAYKELNQLFRNSVGDISRDDNIQIYWRDPTLFAQYITDSNVVAQEQAIVALNSLIDAFASSSLKNAHNITLISTWTPLLVEKGLTSSRATTKTQSMSCILSLCGLDTSITQSVELVIPFFEKKLPKLIAAAANCVYELMAAFGLTNVNVQTFLPELLKHVPQLAGHGDRNVRSQTMNLIVEIYKVTGNNSDLLEEILFKKLKPIQVKDLHKLFAKVGDEPSSSKMLFEWEKRELEKKRSQEEEARKRKSILSNDEGEYQIDKDGDTLMGMETDMPPSKQQSGVQIDTFSMLPEETILDKLPKDFQERITSSKAKDRVEALEEFWDSVLSQTKKLKSTSQNYSNLLGIYGHIIQKDANIQAVALAAQSVELICDKLKTPGFSKDYVSLVFTPLLDRTKEKKPSVIEAIRKALLTICKYYDPLASSGRNEDMLKDILEHMKHKTPQIRMECTQLFNASMKEEKDGYSTLQRYLKDEVVPIVIQIVNDTQPAIRTIGFESFAILIKIFGMNTFVKTLEHLDNLKRKKIEETVKTL

Reference: PMC4145800
